Earlier results, collected in patent publication US20240238439A1, “HER3-BINDING ANTIBODY-DRUG CONJUGATE” (Hummingbird Bioscience Pte. Ltd., priority 2023, published 2024).

Experiments:
[1] = system: xenograft tumors derived from a human cancer cell line harbouring an NRG gene fusion
[2] = system: cyno, mouse and rat HER3
[3] = biological target: human HER3 (Homo sapiens, UniProt P21860)
[4] = system: HER3 overexpressing cells
[5] = system: human cancer cell line-derived xenograft tumors; conditions: in vivo
[6] = biological target: interaction between HER3 and HER2 (Homo sapiens, UniProt P21860); conditions: dose-dependent
[7] = system: HER3-mediated signalling in HER3-expressing human cancer cell line-derived xenograft tumors; conditions: in vivo
[8] = system: thyroid cancer cell lines harbouring the V600E BRAF mutation
[9] = Differential Scanning Fluorimetry
[10] = system: cancer cells; conditions: in vitro
[11] = system: HER3-mediated signalling in cells of HER3-expressing cancer cell lines; conditions: in vitro
[12] = biological target: interaction between HER3 and EGFR (Homo sapiens, UniProt P21860)

binding to cyno, mouse and rat HER3 [2]: high-affinity binding
binding to human HER3 [3]: high affinity and specificity
cross-reactivity with other human EGFR family members [3]: no cross-reactivity
ligand dependence of binding to HER3 [3]: ligand (NRG)-independent
affinity of binding to human HER3 ([3]; in the presence or absence of human NRG1): subpicomolar
inhibition of interaction between HER3 and HER2 [6]: highly potent
B1: 10D1F hIgG1: HER3-binding antibody clone 10D1F (VH SEQ ID NO:33, VL SEQ ID NO:58) in human IgG1/Vκ format (antibody, V domains shown)
VH: QVQLQESGPGLVKPSQTLSLTCTVSGYSITSGYSWHWIRQHPGKGLEWIGSIRYSGGTDYNPSLKSLVTISADTSKNQFSLKLSSVTAADTAVYYCARMTTAPWYPFDYWGQGTTVTVSS
VL: DIQMTQSPSSVSASVGDRVTITCKASQIVGSNVAWYQQKPGKAPEPLIYSASYLYSGVPSRFSGSGSGTDFTLTISSLQPEDFATYYCQQYSSHPLTFGQGTKLEIK
growth of xenograft tumors [1]: extremely potent at inhibiting growth
ADCC activity [4]: induces ADCC activity against HER3 overexpressing cells in a dose-dependent manner
growth of xenograft tumors [5]: potently inhibits growth of human cancer cell line-derived xenograft tumors in vivo
HER3-mediated signalling [7]: inhibits HER3-mediated signalling
in vitro proliferation [8]: inhibits in vitro proliferation
melting temperature [9]: 70.0 °C
growth of cancer cells [10]: potently inhibits the growth of cancer cells in vitro
HER3-mediated signalling [11]: inhibits HER3-mediated signalling
inhibition of interaction between HER3 and EGFR [12]: inhibits interaction between HER3 and EGFR in a dose-dependent fashion
